# From IntAct's records for PubMed 21642537
# B1: Polycystin-2 (Homo sapiens), Q13563-1 (parent)
# chain: MVNSSRVQPQQPGDAKRPPAPRAPDPGRLMAGCAAVGASLAAPGGLCEQRGLEIEMQRIRQAAARDPPAGAAASPSPPLSSCSRQAWSRDNPGFEAEEEEEEVEGEEGGMVVEMDVEWRPGSRRSAASSAVSSVGARSRGLGGYHGAGHPSGRRRRREDQGPPCPSPVGGGDPLHRHLPLEGQPPRVAWAERLVRGLRGLWGTRLMEESSTNREKYLKSVLRELVTYLLFLIVLCILTYGMMSSNVYYYTRMMSQLFLDTPVSKTEKTNFKTLSSMEDFWKFTEGSLLDGLYWKMQPSNQTEADNRSFIFYENLLLGVPRIRQLRVRNGSCSIPQDLRDEIKECYDVYSVSSEDRAPFGPRNGTAWIYTSEKDLNGSSHWGIIATYSGAGYYLDLSRTREETAAQVASLKKNVWLDRGTRATFIDFSVYNANINLFCVVRLLVEFPATGGVIPSWQFQPLKLIRYVTTFDFFLAACEIIFCFFIFYYVVEEILEIRIHKLHYFRSFWNCLDVVIVVLSVVAIGINIYRTSNVEVLLQFLEDQNTFPNFEHLAYWQIQFNNIAAVTVFFVWIKLFKFINFNRTMSQLSTTMSRCAKDLFGFAIMFFIIFLAYAQLAYLVFGTQVDDFSTFQECIFTQFRIILGDINFAEIEEANRVLGPIYFTTFVFFMFFILLNMFLAIINDTYSEVKSDLAQQKAEMELSDLIRKGYHKALVKLKLKKNTVDDISESLRQGGGKLNFDELRQDLKGKGHTDAEIEAIFTKYDQDGDQELTEHEHQQMRDDLEKEREDLDLDHSSLPRPMSSRSFPRSLDDSEEDDDEDSGHSSRRRGSISSGVSYEEFQVLVRRVDRMEHSIGSIVSKIDAVIVKLEIMERAKLKRREVLGRLLDGVAEDERLGRDSEIHREQMERLVREELERWESDDAASQISHGLGTPVGLNGQPRPRSSRPSSSQSTEGMEGAGGNGSSNVHV
# Variants of: B1
# Conditions: with PKD1, P98161-3
# Sequence of PKD1, P98161-3 (P98161 whole entry, looked up): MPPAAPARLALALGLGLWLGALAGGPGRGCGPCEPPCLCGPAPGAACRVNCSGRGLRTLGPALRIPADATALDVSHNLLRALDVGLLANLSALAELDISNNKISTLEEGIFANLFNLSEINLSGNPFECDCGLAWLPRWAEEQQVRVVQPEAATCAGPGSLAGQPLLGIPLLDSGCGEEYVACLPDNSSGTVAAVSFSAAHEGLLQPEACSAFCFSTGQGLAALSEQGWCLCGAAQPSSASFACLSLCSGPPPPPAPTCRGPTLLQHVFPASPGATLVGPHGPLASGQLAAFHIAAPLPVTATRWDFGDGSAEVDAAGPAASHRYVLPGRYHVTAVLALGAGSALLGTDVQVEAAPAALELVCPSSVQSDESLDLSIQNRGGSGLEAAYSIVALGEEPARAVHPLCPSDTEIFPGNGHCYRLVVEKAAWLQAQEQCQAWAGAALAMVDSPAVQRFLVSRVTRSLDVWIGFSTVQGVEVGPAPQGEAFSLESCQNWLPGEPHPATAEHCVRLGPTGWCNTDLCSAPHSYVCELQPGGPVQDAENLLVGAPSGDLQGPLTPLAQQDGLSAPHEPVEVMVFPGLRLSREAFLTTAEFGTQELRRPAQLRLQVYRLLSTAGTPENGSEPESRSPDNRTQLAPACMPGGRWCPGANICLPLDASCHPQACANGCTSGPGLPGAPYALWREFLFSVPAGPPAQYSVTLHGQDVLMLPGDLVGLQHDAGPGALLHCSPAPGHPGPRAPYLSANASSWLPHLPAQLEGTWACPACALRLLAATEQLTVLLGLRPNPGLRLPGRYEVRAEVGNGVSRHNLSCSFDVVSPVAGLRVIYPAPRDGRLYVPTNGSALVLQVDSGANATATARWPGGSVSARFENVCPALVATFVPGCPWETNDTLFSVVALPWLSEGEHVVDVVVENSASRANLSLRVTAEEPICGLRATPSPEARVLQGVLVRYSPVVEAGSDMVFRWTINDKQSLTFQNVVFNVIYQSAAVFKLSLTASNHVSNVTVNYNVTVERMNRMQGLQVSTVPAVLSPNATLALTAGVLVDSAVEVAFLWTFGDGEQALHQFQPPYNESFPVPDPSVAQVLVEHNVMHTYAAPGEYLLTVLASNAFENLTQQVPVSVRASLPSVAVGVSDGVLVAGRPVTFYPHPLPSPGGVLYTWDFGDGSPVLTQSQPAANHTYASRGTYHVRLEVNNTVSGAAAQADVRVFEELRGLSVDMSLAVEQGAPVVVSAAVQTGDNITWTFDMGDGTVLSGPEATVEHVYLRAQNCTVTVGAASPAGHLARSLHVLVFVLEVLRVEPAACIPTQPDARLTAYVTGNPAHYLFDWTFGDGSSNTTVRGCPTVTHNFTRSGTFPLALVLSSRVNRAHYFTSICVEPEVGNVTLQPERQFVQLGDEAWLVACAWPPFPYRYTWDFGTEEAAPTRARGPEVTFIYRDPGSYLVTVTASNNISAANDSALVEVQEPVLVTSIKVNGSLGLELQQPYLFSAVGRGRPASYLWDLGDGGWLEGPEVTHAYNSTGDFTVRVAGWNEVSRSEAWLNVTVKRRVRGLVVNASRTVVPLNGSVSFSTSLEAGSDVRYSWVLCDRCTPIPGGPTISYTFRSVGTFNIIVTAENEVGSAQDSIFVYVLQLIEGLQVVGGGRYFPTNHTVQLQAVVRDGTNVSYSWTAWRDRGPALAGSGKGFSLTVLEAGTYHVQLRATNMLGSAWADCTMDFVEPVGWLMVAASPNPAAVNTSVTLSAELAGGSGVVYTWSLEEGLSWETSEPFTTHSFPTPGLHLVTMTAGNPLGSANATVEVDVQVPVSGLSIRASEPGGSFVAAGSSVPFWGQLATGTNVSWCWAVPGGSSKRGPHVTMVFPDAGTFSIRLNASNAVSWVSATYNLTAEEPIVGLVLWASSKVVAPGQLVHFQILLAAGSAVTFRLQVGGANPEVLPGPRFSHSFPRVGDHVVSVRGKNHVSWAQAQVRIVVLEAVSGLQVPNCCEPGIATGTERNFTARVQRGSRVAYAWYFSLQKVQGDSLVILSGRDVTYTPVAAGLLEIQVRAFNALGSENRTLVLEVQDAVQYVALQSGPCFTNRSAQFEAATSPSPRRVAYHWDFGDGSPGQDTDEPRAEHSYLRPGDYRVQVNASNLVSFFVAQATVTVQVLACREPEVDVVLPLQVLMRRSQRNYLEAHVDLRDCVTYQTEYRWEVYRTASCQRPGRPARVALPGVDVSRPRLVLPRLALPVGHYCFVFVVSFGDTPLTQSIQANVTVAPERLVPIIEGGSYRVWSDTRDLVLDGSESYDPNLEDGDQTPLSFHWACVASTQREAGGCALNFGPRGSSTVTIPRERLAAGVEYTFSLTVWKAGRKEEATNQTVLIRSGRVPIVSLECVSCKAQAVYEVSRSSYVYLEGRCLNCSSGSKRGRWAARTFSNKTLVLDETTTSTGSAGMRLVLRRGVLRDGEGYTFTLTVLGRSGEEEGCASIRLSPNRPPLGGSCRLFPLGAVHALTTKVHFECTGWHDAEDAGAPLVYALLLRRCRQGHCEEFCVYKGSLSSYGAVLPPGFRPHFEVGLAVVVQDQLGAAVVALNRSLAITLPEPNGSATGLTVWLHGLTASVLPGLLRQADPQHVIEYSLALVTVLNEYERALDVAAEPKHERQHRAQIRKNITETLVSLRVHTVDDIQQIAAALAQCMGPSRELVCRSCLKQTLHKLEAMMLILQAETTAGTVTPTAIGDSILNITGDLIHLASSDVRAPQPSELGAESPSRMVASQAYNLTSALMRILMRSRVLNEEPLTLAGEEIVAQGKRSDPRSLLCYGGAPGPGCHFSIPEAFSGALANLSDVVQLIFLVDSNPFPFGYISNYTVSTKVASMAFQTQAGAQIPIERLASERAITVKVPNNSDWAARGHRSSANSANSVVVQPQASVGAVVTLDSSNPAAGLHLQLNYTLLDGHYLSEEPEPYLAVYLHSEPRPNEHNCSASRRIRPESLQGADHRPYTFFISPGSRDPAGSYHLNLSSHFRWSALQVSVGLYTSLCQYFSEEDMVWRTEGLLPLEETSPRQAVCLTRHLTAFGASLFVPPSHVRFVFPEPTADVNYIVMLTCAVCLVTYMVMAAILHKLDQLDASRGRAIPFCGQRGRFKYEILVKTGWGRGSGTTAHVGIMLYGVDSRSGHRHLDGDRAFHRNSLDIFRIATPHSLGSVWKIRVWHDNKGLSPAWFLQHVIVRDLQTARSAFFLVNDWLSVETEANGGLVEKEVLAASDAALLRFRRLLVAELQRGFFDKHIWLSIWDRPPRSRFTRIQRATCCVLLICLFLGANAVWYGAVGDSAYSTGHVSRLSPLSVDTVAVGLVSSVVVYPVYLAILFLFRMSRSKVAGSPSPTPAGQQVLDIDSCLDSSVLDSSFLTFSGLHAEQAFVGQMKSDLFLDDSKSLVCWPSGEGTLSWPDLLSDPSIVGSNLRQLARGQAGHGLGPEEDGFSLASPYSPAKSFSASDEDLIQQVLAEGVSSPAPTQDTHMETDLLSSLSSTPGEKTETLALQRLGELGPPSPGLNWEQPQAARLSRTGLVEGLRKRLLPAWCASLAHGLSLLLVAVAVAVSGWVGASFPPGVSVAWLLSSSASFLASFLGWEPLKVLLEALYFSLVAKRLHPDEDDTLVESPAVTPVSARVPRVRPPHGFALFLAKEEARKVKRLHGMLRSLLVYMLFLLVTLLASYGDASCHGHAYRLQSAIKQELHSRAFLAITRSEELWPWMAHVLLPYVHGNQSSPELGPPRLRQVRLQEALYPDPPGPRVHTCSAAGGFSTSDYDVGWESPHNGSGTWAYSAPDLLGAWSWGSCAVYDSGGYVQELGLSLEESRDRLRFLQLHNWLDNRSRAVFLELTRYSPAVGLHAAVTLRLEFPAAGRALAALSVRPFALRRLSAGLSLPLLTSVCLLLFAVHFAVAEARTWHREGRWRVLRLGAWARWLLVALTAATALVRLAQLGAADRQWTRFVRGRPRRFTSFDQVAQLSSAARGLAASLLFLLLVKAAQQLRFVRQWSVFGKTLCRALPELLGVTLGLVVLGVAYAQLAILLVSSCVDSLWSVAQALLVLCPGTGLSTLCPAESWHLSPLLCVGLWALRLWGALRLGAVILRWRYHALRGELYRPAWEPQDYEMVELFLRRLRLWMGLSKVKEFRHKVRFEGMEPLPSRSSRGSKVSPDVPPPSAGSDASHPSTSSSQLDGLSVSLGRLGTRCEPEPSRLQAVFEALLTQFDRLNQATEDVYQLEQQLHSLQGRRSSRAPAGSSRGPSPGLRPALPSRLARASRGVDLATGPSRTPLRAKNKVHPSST
row,Variant,effect of a mutation on the interaction
1,K876A;R877A;R878A;E879A,decreasing interaction strength
2,V865A;I869A,decreasing interaction strength
3,K876A;R877A,decreasing interaction strength
4,D861A;I864A;V865A,decreasing interaction strength
5,R877A;R878A,decreasing interaction strength
6,K876G;R877G;R878G;E879G,decreasing interaction strength

# Results, then the variant that gave them:
row,effect of a mutation on the interaction,Variant
1,decreasing interaction strength,L881D;L885D
2,decreasing interaction strength,V880A;L881A;L885A
3,disrupting interaction strength,L881A;L885A
4,disrupting interaction strength,R877G;R878G
5,decreasing interaction strength,R883A;L884A

# Variants of: B1
# Conditions: with pkd1_mouse Pkd1, O08852
row,effect of a mutation on the interaction,Variant
1,decreasing interaction strength,V880A;L881A;L885A
2,decreasing interaction strength,L881A;L885A
